Experimental data: article PMC10538386 (Bioconjugate chemistry, 2023)

Legend:
[1] = biological target: the molecule itself; assay: transmission electron microscopy
[2] = biological target: the molecule itself; assay: SEC

B1: PhMV Cys1+2 (A31C S137C) coat protein, assembled as virus-like particles (natural protein, Physalis mottle virus)
chain: MDSSEVVKVKQASIPAPGSILSQPNTEQSPCIVLPFQFEATTFGTAETAAQVSLQTADPITKLTAPYRHAQIVECKAILTPTDLAVSNPLTVYLAWVPANSPATPTQILRVYGGQSFVLGGAISAAKTIEVPLNLDCVNRMLKDSVTYTDTPKLLAYSRAPTNPSKIPTASIQISGRIRLSKPMLIAN
binding result [1]: binds

B2: PhMV Cys2 (S137C) coat protein, assembled as virus-like particles (natural protein, Physalis mottle virus)
chain: MDSSEVVKVKQASIPAPGSILSQPNTEQSPAIVLPFQFEATTFGTAETAAQVSLQTADPITKLTAPYRHAQIVECKAILTPTDLAVSNPLTVYLAWVPANSPATPTQILRVYGGQSFVLGGAISAAKTIEVPLNLDCVNRMLKDSVTYTDTPKLLAYSRAPTNPSKIPTASIQISGRIRLSKPMLIAN
binding result [2]: binds

B3: PhMV Cys1 (A31C) coat protein, assembled as virus-like particles (natural protein, Physalis mottle virus)
chain: MDSSEVVKVKQASIPAPGSILSQPNTEQSPCIVLPFQFEATTFGTAETAAQVSLQTADPITKLTAPYRHAQIVECKAILTPTDLAVSNPLTVYLAWVPANSPATPTQILRVYGGQSFVLGGAISAAKTIEVPLNLDSVNRMLKDSVTYTDTPKLLAYSRAPTNPSKIPTASIQISGRIRLSKPMLIAN
binding result [2]: binds
